Experimental data as given in PMC11271386 (Analytical and Bioanalytical Chemistry, 2024).
Positions count from the first letter of the chain named.

T1: ^FlagDNAJB8^WT (human, UniProt Q8NHS0 1-232)
T1 construct: DNAJB8, human Class B Hsp40 (J-domain protein); also called Hsp40 DNAJB8; source: HEK293T, transfected (calcium phosphate), in lysate
T1 sequence (looked up): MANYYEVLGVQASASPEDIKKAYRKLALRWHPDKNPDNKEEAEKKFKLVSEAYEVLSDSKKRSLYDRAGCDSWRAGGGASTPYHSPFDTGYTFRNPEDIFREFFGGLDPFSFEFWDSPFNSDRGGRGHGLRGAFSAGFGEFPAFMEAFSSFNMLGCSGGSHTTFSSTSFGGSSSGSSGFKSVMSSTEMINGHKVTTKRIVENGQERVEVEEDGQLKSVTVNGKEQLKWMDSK

T2: ^FlagDNAJB8^H31Q (human, UniProt Q8NHS0 1-232, H31Q)
T2 construct: DNAJB8, human Class B Hsp40, with the J-domain mutation H31Q; source: HEK293T, transfected (calcium phosphate), in lysate
T2 sequence (looked up): T1 sequence (looked up) with H31Q

B1: 14–3-3θ/YWHAQ (natural protein, human (endogenous in HEK293T), UniProt P27348 1-245, looked up)
chain: MEKTELIQKAKLAEQAERYDDMATCMKAVTEQGAELSNEERNLLSVAYKNVVGGRRSAWRVISSIEQKTDTSDKKLQLIKDYREKVESELRSICTTVLELLDKYLIANATNPESKVFYLKMKGDYFRYLAEVACGDDRKQTIDNSQGAYQEAFDISKKEMQPTHPIRLGLALNFSVFYYEILNNPELACTLAKTAFDEAIAELDTLNEDSYKDSTLIMQLLRDNLTLWTSDSAGEECDAAEGAEN
notes: 14-3-3 theta (YWHAQ), human; source: endogenous, HEK293T lysate
B2: PFDN1 (natural protein, human (endogenous in HEK293T), UniProt O60925 1-122, looked up)
chain: MAAPVDLELKKAFTELQAKVIDTQQKVKLADIQIEQLNRTKKHAHLTDTEIMTLVDETNMYEGVGRMFILQSKEAIHSQLLEKQKIAEEKIKELEQKKSYLERSVKEAEDNIREMLMARRAQ
notes: PFDN1, prefoldin β subunit, human; also called prefoldin β subunit; source: endogenous, HEK293T lysate

Experiments:
^FlagDNAJB8^WT = biological target: T1, ^FlagDNAJB8^WT; assay: affinity purification with mass spectrometry; TMT-AP-MS comparing four conditions: ^FlagDNAJB8 WT vs. H31Q, with or without 1 mM DSP crosslinking of the cells before lysis; RIPA lysis and washes, M2 anti-Flag beads; crosslinks reversed with TCEP; three biological replicates; conditions: partners not purified
^FlagDNAJB8^H31Q = biological target: T2, ^FlagDNAJB8^H31Q; assay: as above; conditions: partners not purified

Row | Binder | fold change recovery with DSP crosslinking against without (^FlagDNAJB8^WT) [%] | fold change recovery with DSP crosslinking against without (^FlagDNAJB8^H31Q) [%] | fold change of recovery with DNAJB8^H31Q compared to DNAJB8^WT, −DSP (^FlagDNAJB8^H31Q) [fold]
1 | B1 | 4.8 ± 0.7 | 3.2 ± 0.8 | 
2 | B2 |  |  | 3.4 ± 0.9
